According to PMC4869123 (Scientific Reports, 2016):
Where no end group is shown, it is not given here.

Experiments:
[1] = molecular target: T1, biotinylated mouse IL-17A (mouse, UniProt Q62386 26-158, biotinylated); assay: SPR; Biacore 3000; biotinylated protein captured on a streptavidin chip (about 2500 to 3500 RUs); peptide injected at 50 μl/min, 180 s association, at least 600 s dissociation; 10 mM HEPES pH 7.4, 150 mM NaCl, 0.01% P20, 3% DMSO; single site model, global fit; conditions: both partners purified
T1 construct: IL-17A, mouse; also called mIL-17A; murine IL-17A; source: bought: Cell Signaling
T1 sequence (looked up): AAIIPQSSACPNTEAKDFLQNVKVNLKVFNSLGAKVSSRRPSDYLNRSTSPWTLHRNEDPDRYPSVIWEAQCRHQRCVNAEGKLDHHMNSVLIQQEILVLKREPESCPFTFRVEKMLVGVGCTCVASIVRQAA

[2] = molecular target: T1, biotinylated mouse IL-17A; assay: cell-based or functional assay

B1: high affinity IL-17A peptide antagonist (HAP) (peptide)
peptide: Ac-IHVTIPADLWDWINK
notes: 15-residue peptide that combines the key residues found by SAR; made on Rink resin; a C-terminal amide is surmised; also called 30; peptide 30; source: synthetic peptide
Kd [1]: 30.1 ± 0.1 nM
IC50 in a murine functional cell assay using 15 ng/ml murine IL-17A (inhibition of murine IL-17A signaling) [2]: > 1000 nM
